Experimental data: publication PMC7525490, “Uridine diphosphate N-acetylglucosamine orchestrates the interaction of GlmR with either YvcJ or GlmS in Bacillus subtilis” (Scientific Reports, 2020)
Each block holds one molecule with its values, some of them ahead of it.

Key:
[1] = target: T1, YvcJ (Bacillus subtilis, UniProt O06973); assay: thermal shift assay (SYPRO Orange) with apparent KD; supported by limited proteolysis with endoproteinase Glu-C; format: binding
T1 construct: 6His-tagged recombinant YvcJ
T1 sequence (O06973 1-295): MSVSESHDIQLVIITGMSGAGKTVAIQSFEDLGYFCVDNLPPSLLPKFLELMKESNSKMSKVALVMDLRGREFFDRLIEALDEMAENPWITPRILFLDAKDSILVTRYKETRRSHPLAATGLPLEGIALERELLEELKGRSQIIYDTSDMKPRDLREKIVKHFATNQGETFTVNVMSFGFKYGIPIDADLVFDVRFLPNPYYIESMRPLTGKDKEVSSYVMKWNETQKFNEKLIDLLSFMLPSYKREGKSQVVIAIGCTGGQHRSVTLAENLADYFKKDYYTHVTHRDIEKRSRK

[2] = target: the molecule itself; assay: dynamic light scattering; 24 µM YvcJ with 7 µM GlmR (ratio 1:0.3 YvcJ:GlmR) and 0.4 mM UDP-GlcNAc; 25 °C; 50 mM Tris-HCl pH 7.5, 50 mM NaCl, 5% glycerol
[3] = target: the molecule itself; assay: dynamic light scattering; 24 µM YvcJ alone, without or with 0.4 mM UDP-GlcNAc; 25 °C; 50 mM Tris-HCl pH 7.5, 50 mM NaCl, 5% glycerol
[4] = target: T2, YvcJ, purified 6His-tagged protein (Bacillus subtilis, UniProt O06973 1-295); assay: ITC; 1 mM UDP-GlcNAc
T2 chain: T1 sequence (O06973 1-295)

[5] = target: T2, YvcJ, purified 6His-tagged protein
[6] = target: T3, GlmS, glucosamine-6-phosphate synthase from B. subtilis, with a C-terminal 6His-tag (Bacillus subtilis 168, UniProt P0CI73 1-600); assay: cell-based or functional assay
T3 sequence (looked up): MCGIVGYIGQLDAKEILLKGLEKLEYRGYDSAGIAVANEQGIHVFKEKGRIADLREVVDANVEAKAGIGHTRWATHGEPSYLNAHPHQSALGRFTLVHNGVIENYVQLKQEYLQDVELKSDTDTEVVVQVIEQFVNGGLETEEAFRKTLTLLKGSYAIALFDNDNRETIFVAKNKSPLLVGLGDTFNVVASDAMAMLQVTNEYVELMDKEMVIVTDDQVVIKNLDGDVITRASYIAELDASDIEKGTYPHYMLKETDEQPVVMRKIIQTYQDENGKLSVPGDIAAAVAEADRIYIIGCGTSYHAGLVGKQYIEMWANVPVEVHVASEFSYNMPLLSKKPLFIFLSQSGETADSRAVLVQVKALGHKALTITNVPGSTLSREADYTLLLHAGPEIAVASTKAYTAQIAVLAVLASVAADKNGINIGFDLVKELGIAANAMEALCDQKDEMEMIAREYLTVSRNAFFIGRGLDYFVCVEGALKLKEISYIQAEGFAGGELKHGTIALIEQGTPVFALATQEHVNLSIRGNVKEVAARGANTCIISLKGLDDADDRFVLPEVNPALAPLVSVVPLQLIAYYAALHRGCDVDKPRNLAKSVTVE

Kd [1]: 280 ± 470 µM
Molecule: CC(=O)N[C@H]1[C@@H](OP(=O)(O)OP(=O)(O)OC[C@H]2O[C@@H](n3ccc(=O)[nH]c3=O)[C@H](O)[C@@H]2O)O[C@H](CO)[C@@H](O)[C@@H]1O [UDP-GlcNAc]

B1: YvcJ, purified 6His-tagged protein (natural protein, Bacillus subtilis, UniProt O06973 1-295, looked up)
chain: T1 sequence (O06973 1-295)
notes: Cloned BamHI/XhoI in pET21: the His tag is probably C-terminal and vector residues may precede Met1 (surmised); also called RapZ homologue; source: purified (Ni2+-NTA resin, PD-10 column) as previously described
stoichiometry N [2]: 5 molecules
stoichiometry N [3]: ~15 molecules

Kd [4]: 9.03 µM
hydrodynamic size of YvcJ by dynamic light scattering; 24 µM YvcJ titrated with GlmR at a ratio 1:0.3 in the presence of 0.4 mM UDP-GlcNAc [5]: 124 nm
GlmS specific activity (GlcN6P produced, enzyme-coupled assay with GNA-1, CoASH at 412 nm, 37 °C); 7.3 µM GlmS with 0 to 32.1 µM GlmR, no UDP-GlcNAc [6]: 16 fold
B2: GlmR (formerly YvcK), purified 6His-tagged protein (natural protein)
chain: MGQKPKIAIFGGGTGLSVLLRGLKHKPVDITAIVTVADDGGSSGRLRNELKIPPPGDIRNVLAALSDVEPLVEDLFQHRFNKGNDLTGHSLGNLILAAMTNITGDFFHAVTEMSKVLNVRGKVLPAANASVVLHAEMEDGRVVSGESTIPEYGQRIKRVFLTPEQIDPLPETIDVIREADLIIIGPGSLYTSILPNLLVPKIGEEVIKAPAKKVYICNVMTQPGETLHYTAADHVKALNQHMGCGFIDTILVNSEDIPDEIKRKYEMESARPVDFDIEELKAMGLEVIRDQIVTYKNDVIRHDTHKVASLLVDLLKE
